Data on one molecule can be found in US20030152514A1 (ABGENIX, published 2003).

Values joined by “and” are separate entries in the source; they are usually repeats but may differ in a detail not shown here. Identical values can stand only once.

In experiment [1] the target is T1, MUC18-V5-His antigen (extracellular domain aa 1-559 of human MUC18 fused to V5-HIS) (human, UniProt P43121 24-559). Nature of the experiment: SPR (Biacore 3000), mAb captured on protein A, MUC18-V5-His in flow, 1:1 model; October 2001, chip II.
The target of experiment [2] is T1, MUC18-V5-His antigen (extracellular …). Nature of the experiment: SPR (Biacore 3000), mAb captured on protein A, MUC18-V5-His in flow, 1:1 model; November 2001, chip III; exponent printed without its minus sign. (In general: SPR reads the build-up and loss of mass on a sensor chip optically.)
For experiment [3] the target is unchanged. Description: SPR (Biacore 3000), mAb captured on protein A, MUC18-V5-His in flow, 1:1 model; May 2001, chip I; exponent printed without its minus sign.
Experiment [4] shares this target. Nature of the experiment: SPR (Biacore 3000), average of the seven measurements.
The target in experiment [5] is T2, human MUC18 expressed by human melanoma cells (A375-SM, TXM-13, WM-2664) (human, UniProt P43121 24-646).
T2 construct: whole, on cells; also called MCAM; Mel-CAM
Description: immunoblot of melanoma cell lysates (40 ug protein, 10% SDS-PAGE, denatured MUC18), anti-human IgG secondary, ECL. On the procedure:
(§1) After overnight incubation, the plates were washed two times in PBS, and scraped in 400 μl Triton lysis buffer containing a cocktail of protease inhibitors plus DTT. Following centrifugation, the protein concentration was determined using a kit from BioRad. 40 μg of protein was loaded onto a 10% SDS-PAGE and electrophoretically transferred to a 0.45 -micron nitrocellulose membrane (Millipore). The membrane was incubated in buffer containing anti-MUC18 antibody overnight, reacted with a conjugated secondary antibody (Anti-human IgG) for one hour and the proteins were subsequently detected by the ECL (Amersham Corp) method according to the manufactures protocol.

Experiment [6] deals with T3, mouse MUC18 protein of normal (nude) mouse endothelial cells (mouse, UniProt Q8R2Y2 24-648).
T3 construct: whole, on cells; Tested as cell lysate on SDS-PAGE immunoblot, not on intact cells; also called NME; NME2 cells
T3 sequence (looked up): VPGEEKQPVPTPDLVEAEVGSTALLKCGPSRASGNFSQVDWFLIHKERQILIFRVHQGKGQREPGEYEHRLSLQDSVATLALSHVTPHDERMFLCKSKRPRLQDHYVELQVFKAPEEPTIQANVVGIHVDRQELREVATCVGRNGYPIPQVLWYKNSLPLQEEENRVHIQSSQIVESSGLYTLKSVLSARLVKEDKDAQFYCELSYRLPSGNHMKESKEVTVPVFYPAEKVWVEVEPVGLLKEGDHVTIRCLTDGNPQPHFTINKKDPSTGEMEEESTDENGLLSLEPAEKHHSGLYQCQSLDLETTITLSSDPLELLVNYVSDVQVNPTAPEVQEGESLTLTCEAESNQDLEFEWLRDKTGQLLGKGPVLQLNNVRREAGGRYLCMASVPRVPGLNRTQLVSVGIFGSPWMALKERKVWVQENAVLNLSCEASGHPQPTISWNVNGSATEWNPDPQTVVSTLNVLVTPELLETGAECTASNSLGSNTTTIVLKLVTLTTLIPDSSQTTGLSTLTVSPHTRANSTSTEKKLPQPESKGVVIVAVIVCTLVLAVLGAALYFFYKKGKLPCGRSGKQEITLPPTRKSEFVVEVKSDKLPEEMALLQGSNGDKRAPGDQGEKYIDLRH
Description: immunoblot of nude mouse endothelial cell lysate (40 ug protein, 10% SDS-PAGE), anti-human IgG secondary, ECL. As to the method:
as §1
In general terms: In western blotting, separated proteins are transferred to a membrane and probed.

The target in experiment [7] is T1, MUC18-V5-His antigen (extracellular …). Nature of the experiment: SPR (Biacore 3000), mAb captured on protein A, MUC18-V5-His in flow, 1:1 model; May 2001, chip I.
Experiment [8] shares this target. Description: SPR (Biacore 3000), mAb captured on protein A, MUC18-V5-His in flow, 1:1 model; November 2001, chip III.
For experiment [9] the target is unchanged. Nature of the experiment: SPR (Biacore 3000), mAb captured on protein A, MUC18-V5-His in flow, 1:1 model; October 2001, chip II; exponent printed without its minus sign.

B1: anti-MUC18 antibody c3.19.1 (antibody, human IgG2, V domains shown)
VH: QVQLQESGPGLVKPSETLSLTCTVSGGSISSYYWSWIRQPPGKGLEWIGYIYYTWTSNYNPSLKSRVTISVDTSKNQFSLRLSSVTAADTAVYYCARDQGQWLLPDAFDIWGQGTMVTVSS
VL: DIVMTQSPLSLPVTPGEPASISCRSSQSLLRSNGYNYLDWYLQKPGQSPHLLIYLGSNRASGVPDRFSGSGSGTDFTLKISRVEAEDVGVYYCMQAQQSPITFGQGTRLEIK
notes: also called ABX-MA1; MAb 3.19.1
By Kd is commonly meant the equilibrium constant for the complex coming apart. Broadly, the kon is a measure of how fast the partners come together. The koff is the rate constant with which the complex falls apart. A higher koff goes with fast dissociation. On to B1, for which the Kd in experiment [1] is 0.57 nM and 0.69 nM; in experiment [4], 0.61 nM; in experiment [7] it was 0.67 nM; in [8] it was 0.46 nM and 0.62 nM and 0.65 nM and 0.59 nM. In addition, the kon is 709000 M⁻¹ s⁻¹ and 575000 M⁻¹ s⁻¹ in [1]; 627000 M⁻¹ s⁻¹ in experiment [4]; 453000 M⁻¹ s⁻¹ in [7]; 749000 M⁻¹ s⁻¹ and 625000 M⁻¹ s⁻¹ and 615000 M⁻¹ s⁻¹ and 661000 M⁻¹ s⁻¹ in experiment [8]. Moreover, the dissociation rate constant (koff) in [2] is 0.000347 s⁻¹ and 0.000385 s⁻¹ and 0.000402 s⁻¹ and 0.000389 s⁻¹; in [3] it was 0.000302 s⁻¹; in [4] it was 0.000375 s⁻¹; in [9], 0.000402 s⁻¹ and 0.000396 s⁻¹. For the same molecule, the binding result was “binds” in [5] and “no binding” in experiment [6].
